Reference: patent US20090270309A1, “USE OF LACTOFERRIN FRAGMENTS AND HYDROLYSATES” (priority 2005, published 2009)

B1: SEQ ID NO. 8: Bovine lactoferrin C-lobe, residues 285-689 of SEQ ID NO. 2, controlled tryptic hydrolysis (protein, listed as Bos taurus)
chain: SFQLFGSPPGQRDLLFKDSALGFLRIPSKVDSALYLGSRYLTTLKNLRETAEEVKARYTRVVWCAVGPEEQKKCQQWSQQSGQNVTCATASTTDDCIVLVLKGEADALNLDGGYIYTAGKCGLVPVLAENRKSSKHSSLDCVLRPTEGYLAVAVVKKANEGLTWNSLKDKKSCHTAVDRTAGWNIPMGLIVNQTGSCAFDEFFSQSCAPGADPKSRLCALCAGDDQGLDKCVPNSKEKYYGYTGAFRCLAEDVGDVAFVKNDTVWENTNGESTADWAKNLNREDFRLLCLDGTRKPVTEAQSCHLAVAPNHAVVSRSDRAAHVKQVLLHQQALFGKNGKNCPDKFCLFKSETKNLLFNDNTECLAKLGGRPTYEEYLGTEYVTAIANLKKCSTSPLLEACAFLTR
B2: SEQ ID NO. 5: Recombinant human lactoferrin N-lobe, residues 1-333 of SEQ ID NO. 4, expressed from baby hamster kidney cells (protein)
chain: GRRRRSVQWCAVSQPEATKCFQWQRNMRKVRGPPVSCIKRDSPIQCIQAIAENRADAVTLDGGFIYEAGLAPYKLRPVAAEVYGTERQPRTHYYAVAVVKKGGSFQLNELQGLKSCHTGLRRTAGWNVPIGTLRPFLNWTGPPEPIEAAVARFFSASCVPGADKGQFPNLCRLCAGTGENKCAFSSQEPYFSYSGAFKCLRDGAGDVAFIRESTVFEDLSDEAERDEYELLCPDNTRKPVDKFKDCHLARVPSHAVVARSVNGKEDAIWNLLRQAQEKFGKDKSPKFQLFGSPSGQKDLLFKDSAIGFSRVPPRIDSGLYLGSGYFTAIQNLR
modifications: Recombinant human lactoferrin N-lobe
notes: 4, expressed from baby hamster kidney cells
B3: osteoprotegerin (protein, UniProt O00300 22-401, looked up)
Tumor necrosis factor …: ETFPPKYLHYDEETSHQLLCDKCPPGTYLKQHCTAKWKTVCAPCPDHYYTDSWHTSDECLYCSPVCKELQYVKQECNRTHNRVCECKEGRYLEIEFCLKHRSCPPGFGVVQAGTPERNTVCKRCPDGFFSNETSSKAPCRKHTNCSVFGLLLTQKGNATHDNICSGNSESTQKCGIDVTLCEEAFFRFAVPTKFTPNWLSVLVDNLPGTKVNAESVERIKRQHSSQEQTFQLLKLWKHQNKDQDIVKKIIQDIDLCENSVQRHIGHANLTFEQLRSLMESLPGKKVGAEDIEKTIKACKPSDQILKLLSLWRIKNGDQDTLKGLMHALKHSKTYHFPKTVTQSLKKTIRFLHSFTMYKLYQKLFLEMIGNQVQSVKISCL
B4: SEQ ID NO. 6: Bovine lactoferrin N-lobe, residues 1-280 of SEQ ID NO. 2, tryptic cleavage (protein, listed as Bos taurus)
chain: APRKNVRWCTISQPEWFKCRRWQWRMKKLGAPSITCVRRAFALECIRAIAEKKADAVTLDGGMVFEAGRDPYKLRPVAAEIYGTKESPQTHYYAVAVVKKGSNFQLDQLQGRKSCHTGLGRSAGWIIPMGILRPYLSWTESLEPLQGAVAKFFSASCVPCIDRQAYPNLCQLCKGEGENQCACSSREPYFGYSGAFKCLQDGAGDVAFVKETTVFENLPEKADRDQYELLCLNNSRAPVDAFKECHLAQVPSHAVVARSVDGKEDLIWKLLSKAQEKFGK
B5: full length recombinant human lactoferrin: Full-length recombinant human lactoferrin, comparator (protein, UniProt P02788 1-710, looked up)
chain: MKLVFLVLLFLGALGLCLAGRRRSVQWCAVSQPEATKCFQWQRNMRKVRGPPVSCIKRDSPIQCIQAIAENRADAVTLDGGFIYEAGLAPYKLRPVAAEVYGTERQPRTHYYAVAVVKKGGSFQLNELQGLKSCHTGLRRTAGWNVPIGTLRPFLNWTGPPEPIEAAVARFFSASCVPGADKGQFPNLCRLCAGTGENKCAFSSQEPYFSYSGAFKCLRDGAGDVAFIRESTVFEDLSDEAERDEYELLCPDNTRKPVDKFKDCHLARVPSHAVVARSVNGKEDAIWNLLRQAQEKFGKDKSPKFQLFGSPSGQKDLLFKDSAIGFSRVPPRIDSGLYLGSGYFTAIQNLRKSEEEVAARRARVVWCAVGEQELRKCNQWSGLSEGSVTCSSASTTEDCIALVLKGEADAMSLDGGYVYTAGKCGLVPVLAENYKSQQSSDPDPNCVDRPVEGYLAVAVVRRSDTSLTWNSVKGKKSCHTAVDRTAGWNIPMGLLFNQTGSCKFDEYFSQSCAPGSDPRSNLCALCIGDEQGENKCVPNSNERYYGYTGAFRCLAENAGDVAFVKDVTVLQNTDGNNNEAWAKDLKLADFALLCLDGKRKPVTEARSCHLAMAPNHAVVSRMDKVERLKQVLLHQQAKFGRNGSDCPDKFCLFQSETKNLLFNDNTECLARLHGKTTYEKYLGPQYVAGITNLKKCSTSPLLEACEFLRK
modifications: full-length recombinant
notes: Full-length recombinant human lactoferrin, comparator
B6: SEQ ID NO. 7: Bovine lactoferrin C-lobe, residues 345-689 of SEQ ID NO. 2, tryptic cleavage (protein, listed as Bos taurus)
chain: VVWCAVGPEEQKKCQQWSQQSGQNVTCATASTTDDCIVLVLKGEADALNLDGGYIYTAGKCGLVPVLAENRKSSKHSSLDCVLRPTEGYLAVAVVKKANEGLTWNSLKDKKSCHTAVDRTAGWNIPMGLIVNQTGSCAFDEFFSQSCAPGADPKSRLCALCAGDDQGLDKCVPNSKEKYYGYTGAFRCLAEDVGDVAFVKNDTVWENTNGESTADWAKNLNREDFRLLCLDGTRKPVTEAQSCHLAVAPNHAVVSRSDRAAHVKQVLLHQQALFGKNGKNCPDKFCLFKSETKNLLFNDNTECLAKLGGRPTYEEYLGTEYVTAIANLKKCSTSPLLEACAFLTR

Tests used:
primary rat osteoblasts = assay: Proliferation of primary rat osteoblasts (cell counts and [3H]-thymidine incorporation); assay type: cell-based; settings: for Mitogenic / proliferative effect on primary osteoblasts (in words): figure legends, significantly different from control by ANOVA, post hoc Dunnett's test; for Dose (ug/mL): minimum dose range that stimulates osteoblast proliferation: primary rat osteoblasts, Table 1
Description: Osteoblasts were isolated by collagenase digestion from 20-day fetal rat ? viously described by Lowe, et al. (1991). Calvariae were dissected aseptically, and the frontal and parietal bones were stripped of their periosteum. Only the central portions of the bones, free from suture tissue, were collected. The calvariae were treated twice with phosphate buffered saline (PBS) containing 3 mM EDTA (pH 7.4) for 15 minutes at 37° C. in a shaking water bath. After washing once in PBS, the calvariae were treated twice with 3 ml of 1 mg/ml collagenase for 7 minutes at 37° C. After discarding the supernatants from digestions I and II, the calvariae were treated further two times with 3 ml of 2 mg/ml collagenase (30 mins, 37° C.). The supernatants of digestions III and IV were pooled, centrifuged, and the cells washed in Dulbecco's modified Eagle's medium (DME) with 10% fetal calf serum (FCS), suspended in DME/10% FCS, and placed in […] flasks. The cells were incubated under 5% CO2 and 95% air at 37° C. Confluence was reached by 5-6 days, at which time the cells were subcultured. After trypsinization using trypsin-EDTA (0.05%/0.53 mM), the cells were rinsed in minimum essential medium (MEM) with 5% FCS and resuspended in a fresh medium, then seeded at 5×10^4 cells/ml in 24-well plates (0.5 ml cell suspension per well, i.e., 1.4×10^4 cells/cm^2).
Proliferation studies (cell counts and thymidine incorporation) were performed both in actively growing and non-actively growing cell populations. To produce actively growing cells, sub-confluent populations (24 h after subculturing) were placed in fresh MEM containing 1% FCS and a lactoferrin fragment sample (see Table 1 below). To produce non-actively growing cells, sub-confluent populations were placed in serum-free medium with 0.1% bovine serum albumin plus a lactoferrin fragment sample. Cell numbers were analyzed at 6, 24, and 48 hours after the addition of lactoferrin fragment samples. The cell numbers were determined after detaching cells from the wells by exposure to trypsin/EDTA (0.05%/0.53 mM) for approximately 5 minutes at 37° C. Counting was performed in a haemocytometer chamber. [3H]-thymidine incorporation into actively growing and non-actively growing cells was assessed by pulsing the cells with [3H]-thymidine (1 μCi/well) two hours before the end of the incubation. The experiment was terminated at 6, 24, or 48 hours by washing the cells in MEM containing cold thymidine followed by the addition of 10% trichloroacetic acid. The precipitate was washed twice with ethanol:ether (3:1), and the wells desiccated at room temperature. The ? redissolved in 2 M KOH at 55° C. for 30 min, neutralized with 1 M HCl, and an aliquot counted for radioactivity. For both cell counts and thymidine incorporation, each experiment at each time point was performed at least 4 different times using experimental groups consisting of at least 6 wells.
The osteogenic response seen above was compared with that of insulin-like growth factor 1 (IGF-1), a well-recognized osteoblast mitogen. The magnitudes of response of the lactoferrin fragments were similar to IGF-1 in the same osteoblast cell culture system.

[1] = test system: osteoclast development in a bone marrow culture; assay: Osteoclast development in mouse bone marrow culture (count of multinucleated osteoclast-like cells); assay type: cell-based; settings: for Concentration with significant inhibition of osteoclast development: FIG. 7; for Inhibition of osteoclast development in a bone marrow culture (in words): mouse bone marrow culture, 1 week, ANOVA P<0.0001
Description: Bone marrow cultures were used to determine the effect of lactoferrin fragments on osteoclast development. The method used has been previously described (see Cornish, et al., (2001)). Bone marrow was obtained from the long bones of four to six week old Swiss male mice by flushing the marrow cavity with media. The cell suspension was incubated for two hours and the non-adherent cells were plated into 48-well plates and cultured in 1.25 vitamin D3 enriched media for 1 week with lactoferrin fragments at a range of concentrations. Cells were fixed and stained and multinucleated osteoclast-like cells were counted.
A recombinant N-lobe fragment of full length recombinant human lactoferrin (SEQ ID NO. 5) and a lactoferrin C-lobe fragment (SEQ ID NO. 8) were tested. Osteoprotegerin was used as a positive inhibitor control. Full length recombinant human lactoferrin was also tested. The results are shown in FIGS. 6 and 7, as described above.

Molecule	Mitogenic / proliferative effect on primary osteoblasts (in words) (primary rat osteoblasts)	Dose (ug/mL): minimum dose range that stimulates osteoblast proliferation (primary rat osteoblasts)	Concentration with significant inhibition of osteoclast development ([1]; P<0.05 (post hoc Dunnett's test))	Inhibition of osteoclast development in a bone marrow culture (in words) [1]	Concentration with significant inhibition of osteoclast development ([1]; positive inhibitor control, P<0.01 (post hoc Dunnett's test))
B1	mitogenic to primary osteoblasts	1 to 100 µg/mL	50 µg/mL	inhibition of osteoclast development	
B2	osteoblast proliferative effects	0.1 to 10 µg/mL		inhibition of osteoclast development	
B3					0.01 µg/mL
B4	mitogenic to primary osteoblasts	1 to 100 µg/mL			
B5				inhibition of osteoclast development	
B6	mitogenic to primary osteoblasts	1 to 100 µg/mL			
